B4: peptide corresponding to the extreme C-terminus of human Presenilin 1 (CMDQLAFHQFYI) (peptide)
peptide: CMDQLAFHQFYI
modifications: also: immobilized on SulfoLink beads
notes: Has an added N-terminal Cys and is immobilized on SulfoLink beads; also called Pres1; presenilin 1 column

Assay [1] deals with B4. Briefly: affinity chromatography of COS cell-expressed Mint 1 proteins on the immobilized presenilin 1 C-terminal peptide.
Assay [2] has as its target T1, Mint 1 (rat, UniProt O35430 1-839).
T1 construct: Full-length rat Mint 1 from pCMV5 vectors in transfected COS/HEK293 cells; also called Mints/X11 1; wild-type Mint 1
T1 sequence: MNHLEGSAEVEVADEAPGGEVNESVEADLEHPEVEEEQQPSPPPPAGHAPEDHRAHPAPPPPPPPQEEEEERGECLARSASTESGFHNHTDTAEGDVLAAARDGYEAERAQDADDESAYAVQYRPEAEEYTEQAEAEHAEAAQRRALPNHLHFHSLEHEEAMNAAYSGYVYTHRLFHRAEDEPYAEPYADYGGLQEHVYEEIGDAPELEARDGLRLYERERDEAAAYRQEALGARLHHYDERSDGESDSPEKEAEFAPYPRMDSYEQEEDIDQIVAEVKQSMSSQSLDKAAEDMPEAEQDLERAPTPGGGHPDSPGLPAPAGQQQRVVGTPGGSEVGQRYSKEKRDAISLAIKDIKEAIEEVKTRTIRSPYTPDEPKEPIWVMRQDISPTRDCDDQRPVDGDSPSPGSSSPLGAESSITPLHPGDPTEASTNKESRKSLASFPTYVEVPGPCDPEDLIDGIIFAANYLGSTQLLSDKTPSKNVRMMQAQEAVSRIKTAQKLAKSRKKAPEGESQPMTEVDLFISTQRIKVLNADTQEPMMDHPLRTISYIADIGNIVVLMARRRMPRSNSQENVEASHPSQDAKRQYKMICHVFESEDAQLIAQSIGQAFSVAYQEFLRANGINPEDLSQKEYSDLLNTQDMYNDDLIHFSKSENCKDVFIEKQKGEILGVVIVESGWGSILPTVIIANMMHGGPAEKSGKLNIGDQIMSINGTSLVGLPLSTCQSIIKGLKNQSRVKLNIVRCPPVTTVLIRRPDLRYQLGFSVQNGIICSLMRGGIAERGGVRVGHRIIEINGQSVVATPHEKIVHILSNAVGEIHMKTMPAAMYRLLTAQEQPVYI
Briefly: affinity chromatography on the immobilized Drosophila presenilin C-terminal peptide.

Assay [3] deals with T1, Mint 1. In words: affinity chromatography on the immobilized presenilin 2 C-terminal peptide.
Assay [4] has as its target T1, Mint 1. In words: affinity chromatography on the immobilized presenilin 1 C-terminal peptide, immunoblot.
Assay [5] concerns the target T2, Mint 3 (rat, UniProt O70248 1-569).
T2 construct: Endogenous rat brain protein or full-length rat Mint 3 from a pCMV5 vector; also called Mints/X11 3; pCMV-Mint 3
T2 sequence (looked up): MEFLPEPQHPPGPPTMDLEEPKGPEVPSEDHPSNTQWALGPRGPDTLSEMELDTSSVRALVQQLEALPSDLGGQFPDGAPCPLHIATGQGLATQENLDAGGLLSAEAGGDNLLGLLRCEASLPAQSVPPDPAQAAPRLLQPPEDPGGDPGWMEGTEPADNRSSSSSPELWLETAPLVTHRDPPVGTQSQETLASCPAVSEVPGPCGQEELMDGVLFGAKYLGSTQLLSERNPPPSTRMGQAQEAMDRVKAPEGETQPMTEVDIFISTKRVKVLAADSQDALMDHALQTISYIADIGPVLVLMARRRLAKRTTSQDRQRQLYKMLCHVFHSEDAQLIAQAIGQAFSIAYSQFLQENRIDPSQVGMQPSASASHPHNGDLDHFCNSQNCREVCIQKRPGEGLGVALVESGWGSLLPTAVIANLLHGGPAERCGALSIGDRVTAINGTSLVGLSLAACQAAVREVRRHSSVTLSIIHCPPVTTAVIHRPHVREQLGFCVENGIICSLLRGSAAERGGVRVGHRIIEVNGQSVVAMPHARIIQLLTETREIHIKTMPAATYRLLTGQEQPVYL
Described as above.

For a further assay, the target named is T3, synaptophysin 1 (Syp) (rat, UniProt P07825 1-307).
T3 construct: Negative control protein
Briefly: affinity chromatography of rat forebrain membrane proteins on the presenilin 1 C-terminal peptide.

The target of a further assay is PSD95 (rat, UniProt P31016 1-724). Briefly: affinity chromatography of rat forebrain membrane proteins on the immobilized presenilin 1 C-terminal peptide, immunoblot. For orientation: Immunoblotting shows a protein as a band on a membrane.
Assay [6] has as its target T4, Mint 2 (rat, UniProt O35431 1-750).
T4 construct: Endogenous rat brain protein or full-length rat Mint 2 from a pCMV5 vector; also called Mints/X11 2; pCMV-Mint 2
T4 sequence: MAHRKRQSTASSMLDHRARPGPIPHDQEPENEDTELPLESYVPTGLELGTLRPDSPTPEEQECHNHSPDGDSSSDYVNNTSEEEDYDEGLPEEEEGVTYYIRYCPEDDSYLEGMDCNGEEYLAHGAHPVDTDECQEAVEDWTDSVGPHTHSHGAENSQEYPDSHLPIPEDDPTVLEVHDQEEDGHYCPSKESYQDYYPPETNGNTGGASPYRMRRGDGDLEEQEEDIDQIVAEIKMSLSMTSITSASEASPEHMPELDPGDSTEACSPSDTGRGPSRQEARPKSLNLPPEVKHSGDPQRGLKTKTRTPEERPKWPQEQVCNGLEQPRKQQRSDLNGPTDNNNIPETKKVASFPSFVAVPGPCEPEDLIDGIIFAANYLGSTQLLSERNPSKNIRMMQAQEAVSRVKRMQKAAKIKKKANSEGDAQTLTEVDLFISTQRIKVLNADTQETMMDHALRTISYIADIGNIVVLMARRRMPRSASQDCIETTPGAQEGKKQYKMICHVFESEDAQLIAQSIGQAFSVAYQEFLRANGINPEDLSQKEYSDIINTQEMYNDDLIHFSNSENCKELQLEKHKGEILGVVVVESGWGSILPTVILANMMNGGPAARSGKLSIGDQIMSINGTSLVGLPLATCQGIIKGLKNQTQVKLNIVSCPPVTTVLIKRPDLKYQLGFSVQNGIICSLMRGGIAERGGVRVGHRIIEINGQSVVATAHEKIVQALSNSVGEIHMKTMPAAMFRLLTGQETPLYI
The assay is described as above.

Assay [7] addresses T1, Mint 1. In words: affinity chromatography on the immobilized HPV2 control peptide.
Assay [8] addresses T1, Mint 1. Briefly: affinity chromatography on the immobilized APP tail peptide, immunoblot.
For assay [9], the target named is T4, Mint 2. The assay is described as above.
Assay [10] deals with T2, Mint 3. Described as above.
The target in assay [11] is T4, Mint 2. In words: affinity chromatography of rat forebrain membrane proteins on the gp41 control peptide.
Assay [12] has as its target T2, Mint 3. Described as above.
Assay [13] deals with T1, Mint 1. Briefly: affinity chromatography of rat brain extract on the immobilized gp41 control peptide, immunoblot.
For assay [14], the target named is APP-Gal4/VP16 fusion protein (human; yeast, UniProt P05067 18-651; P04386 1-147; P06492 413-490; P05067 652-695). Briefly: cell-based or functional assay.

No end group written: not given here.

T3 sequence (P07825 whole entry): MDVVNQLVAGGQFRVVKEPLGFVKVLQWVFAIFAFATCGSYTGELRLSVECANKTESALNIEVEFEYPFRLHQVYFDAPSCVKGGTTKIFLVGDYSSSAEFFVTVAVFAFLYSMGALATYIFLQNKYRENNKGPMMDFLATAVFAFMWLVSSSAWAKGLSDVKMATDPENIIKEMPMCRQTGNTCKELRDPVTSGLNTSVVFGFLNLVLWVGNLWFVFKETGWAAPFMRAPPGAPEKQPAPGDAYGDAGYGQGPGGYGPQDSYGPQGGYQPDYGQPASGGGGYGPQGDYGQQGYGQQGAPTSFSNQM
Sequence of PSD95 (P31016 whole entry): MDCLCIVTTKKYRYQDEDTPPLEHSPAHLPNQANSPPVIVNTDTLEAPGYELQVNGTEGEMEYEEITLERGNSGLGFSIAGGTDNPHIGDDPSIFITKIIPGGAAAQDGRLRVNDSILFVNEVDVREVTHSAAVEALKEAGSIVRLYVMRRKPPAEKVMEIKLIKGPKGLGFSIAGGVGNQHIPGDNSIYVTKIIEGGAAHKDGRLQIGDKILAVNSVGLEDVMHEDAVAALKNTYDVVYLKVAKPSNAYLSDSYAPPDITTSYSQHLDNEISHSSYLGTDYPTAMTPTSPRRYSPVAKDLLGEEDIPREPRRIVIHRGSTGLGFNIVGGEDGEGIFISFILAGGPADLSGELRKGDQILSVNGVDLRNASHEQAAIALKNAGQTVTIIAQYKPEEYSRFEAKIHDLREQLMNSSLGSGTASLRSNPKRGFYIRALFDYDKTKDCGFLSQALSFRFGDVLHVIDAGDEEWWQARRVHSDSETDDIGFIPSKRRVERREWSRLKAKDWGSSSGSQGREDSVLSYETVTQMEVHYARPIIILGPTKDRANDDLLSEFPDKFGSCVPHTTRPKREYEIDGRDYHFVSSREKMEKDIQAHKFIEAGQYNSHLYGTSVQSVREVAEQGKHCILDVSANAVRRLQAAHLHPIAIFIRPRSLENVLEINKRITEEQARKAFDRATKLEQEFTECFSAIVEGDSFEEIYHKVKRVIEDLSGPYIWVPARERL

B1: Mint 1 PDZ1* (other)
chain: MNHLEGSAEVEVADEAPGGEVNESVEADLEHPEVEEEQQPSPPPPAGHAPEDHRAHPAPPPPPPPQEEEEERGECLARSASTESGFHNHTDTAEGDVLAAARDGYEAERAQDADDESAYAVQYRPEAEEYTEQAEAEHAEAAQRRALPNHLHFHSLEHEEAMNAAYSGYVYTHRLFHRAEDEPYAEPYADYGGLQEHVYEEIGDAPELEARDGLRLYERERDEAAAYRQEALGARLHHYDERSDGESDSPEKEAEFAPYPRMDSYEQEEDIDQIVAEVKQSMSSQSLDKAAEDMPEAEQDLERAPTPGGGHPDSPGLPAPAGQQQRVVGTPGGSEVGQRYSKEKRDAISLAIKDIKEAIEEVKTRTIRSPYTPDEPKEPIWVMRQDISPTRDCDDQRPVDGDSPSPGSSSPLGAESSITPLHPGDPTEASTNKESRKSLASFPTYVEVPGPCDPEDLIDGIIFAANYLGSTQLLSDKTPSKNVRMMQAQEAVSRIKTAQKLAKSRKKAPEGESQPMTEVDLFISTQRIKVLNADTQEPMMDHPLRTISYIADIGNIVVLMARRRMPRSNSQENVEASHPSQDAKRQYKMICHVFESEDAQLIAQSIGQAFSVAYQEFLRANGINPEDLSQKEYSDLLNTQDMYNDDLIHFSKSENCKDVFIEKQKGEILAAVIVESGWGSILPTVIIANMMHGGPAEKSGKLNIGDQIMSINGTSLVGLPLSTCQSIIKGLKNQSRVKLNIVRCPPVTTVLIRRPDLRYQLGFSVQNGIICSLMRGGIAERGGVRVGHRIIEINGQSVVATPHEKIVHILSNAVGEIHMKTMPAAMYRLLTAQEQPVYI
notes: Produced in transfected COS or HEK293 cells; also called pCMV-Mint 1-PDZ1*
B1: the “fold decrease in binding against wild-type Mint 1” value in assay [1] was approximately 2 fold decrease.

B2: peptide corresponding to the extreme C-terminus of Drosophila Presenilin (CMEDLSAKQVFI) (peptide)
peptide: CMEDLSAKQVFI
modifications: also: immobilized on SulfoLink beads
notes: Has an added N-terminal Cys and is immobilized on SulfoLink beads; also called Drosophila presenilin C-terminal peptide
As for B2, in the assay with Mint 1 [2], the binding result was “binds”.

B3: peptide corresponding to the extreme C-terminus of human Presenilin 2 (CMDTLASHQLYI) (peptide)
peptide: CMDTLASHQLYI
modifications: also: immobilized on SulfoLink beads
notes: Has an added N-terminal Cys and is immobilized on SulfoLink beads; also called presenilin 2 C-terminal peptide
Consider B3, for which the binding result in the assay with Mint 1 [3] was “binds”.
For B4, the binding result in the assay with Mint 1 [4] was “binds”; in the assay with Mint 3 [5] it was “binds”; with synaptophysin 1 (Syp), “no binding”; in the assay with PSD95 it was “binds”; with Mint 2 [6], “binds”.

B5: peptide corresponding to the extreme C-terminus of human HPV2 (poliovirus receptor-related protein 2; CGSLISRRAVYV) (peptide)
peptide: CGSLISRRAVYV
modifications: also: immobilized on SulfoLink beads
notes: Negative control peptide immobilized on SulfoLink beads; also called HPV2 control peptide
On to B5, for which the binding result in the assay with Mint 1 [7] is on record as “no binding”.

B6: immobilized cytoplasmic peptide derived from APP (CGYENPTYKFFEQMQN) (peptide)
peptide: CGYENPTYKFFEQMQN
modifications: not fully specified (residue 1); also: immobilized on SulfoLink beads via N-terminal Cys
notes: Coupled through the added N-terminal Cys to SulfoLink beads; also called immobilized cytoplasmic tail of APP; immobilized APP tail
For the molecule B6, the binding result with Mint 1 [8], with Mint 2 [9] and with Mint 3 [10] was “binds” each time.

B7: peptide derived from the gp41 glycoprotein (CWFSITNWLWYI) (peptide)
peptide: CWFSITNWLWYI
modifications: also: immobilized on SulfoLink beads
notes: Negative control peptide immobilized on SulfoLink beads; also called gp41 control peptide; Control
In the case of B7, the binding result in the assay with Mint 2 [11], with Mint 3 [12] and with Mint 1 [13] was “no binding” each time.

B8: Mint 1 ΔPDZ (other)
chain: MNHLEGSAEVEVADEAPGGEVNESVEADLEHPEVEEEQQPSPPPPAGHAPEDHRAHPAPPPPPPPQEEEEERGECLARSASTESGFHNHTDTAEGDVLAAARDGYEAERAQDADDESAYAVQYRPEAEEYTEQAEAEHAEAAQRRALPNHLHFHSLEHEEAMNAAYSGYVYTHRLFHRAEDEPYAEPYADYGGLQEHVYEEIGDAPELEARDGLRLYERERDEAAAYRQEALGARLHHYDERSDGESDSPEKEAEFAPYPRMDSYEQEEDIDQIVAEVKQSMSSQSLDKAAEDMPEAEQDLERAPTPGGGHPDSPGLPAPAGQQQRVVGTPGGSEVGQRYSKEKRDAISLAIKDIKEAIEEVKTRTIRSPYTPDEPKEPIWVMRQDISPTRDCDDQRPVDGDSPSPGSSSPLGAESSITPLHPGDPTEASTNKESRKSLASFPTYVEVPGPCDPEDLIDGIIFAANYLGSTQLLSDKTPSKNVRMMQAQEAVSRIKTAQKLAKSRKKAPEGESQPMTEVDLFISTQRIKVLNADTQEPMMDHPLRTISYIADIGNIVVLMARRRMPRSNSQENVEASHPSQDAKRQYKMICHVFESEDAQLIAQSIGQAFSVAYQEFLRANGINPEDLSQKEYSDLLNTQDMYNDDLIHFSKSENCKDV
Regarding B8, the “potency of inhibition of transactivation relative to wild-type Mint 1 (normalized to expressed protein)” value in assay [14] is ~10 times more potent than wild-type Mint 1.

For the origin of these results see patent US20030036169A1 (University of Texas, published 2003).
